The supplement of paper PMC12042874
± gives the uncertainty stated by the source.

Assay: amyloid nucleation score (Sup35N fusion, yeast selection) (log enrichment); library NNK2; higher = more nucleation; inactive = no reads after selection
In short: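 Sup35N fusions to peptides of 20 random codons were expressed in psi-negative yeast, induced 24 hours with 100 μM copper sulfate, and grown 7 days at 30°C on medium lacking adenine and uracil. Input and output plasmid inserts were sequenced by Illumina. The nucleation score is the DiMSum log enrichment of output over input reads, centred on the mode score of non-aggregating sequences. Sequences with under 100 input reads were excluded.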

Going from KIFTSCKELTVVGLVASYMN to ISSSIEHNRCGVEINVICWS, the amyloid nucleation score rises from 0.782 ± 0.51 to 7.312 ± 0.051.

First: VLPQDKNMILYYKSLLHLFC
Second: GADGCCHNMDCGFLNINWTN
The amyloid nucleation score of the first is lower: 0.823 ± 0.44 for the first, 8.959 ± 0.049 for the second.

LIRFTLMSTFEITIMSFRCV and SREVFDVLGKFFCSPQDRVV are within error of each other in amyloid nucleation score: 0.934 ± 0.2 for the first, 0.294 ± 0.8 for the second.

First: EWRKPGFVRGLRLNCVLRYF
Second: HIRDTESTTLVRVRGCSSPK
The amyloid nucleation score of the first is lower: -1.51 ± 0.78 for the first, 0.07 ± 0.61 for the second.

MCFSPCCRWPRIRQEDQG and LCFKLMNSKSWMRIQTAWTL are within error of each other in amyloid nucleation score: 0.531 ± 0.64 for the first, 0.384 ± 0.34 for the second.

Compared with LFGSVHGLTCVLSGLYCVQH, SLCEFMREGCLLTYWFNKCE is lower in amyloid nucleation score: 10.32 ± 0.04 for the first, -0.838 ± 0.64 for the second.

QYTRDFVRGTSQF and YYQRLRVHLYADIELYATLC are within error of each other in amyloid nucleation score: -0.949 ± 1.1 for the first, 0.266 ± 0.6 for the second.

Compared with KKTSEKLEGYNVNISVLRGY, RSGWVEPSNITVIWVKMLVQ is lower in amyloid nucleation score: 2.59 ± 0.23 for the first, 0.166 ± 0.55 for the second.

SISSLLLRLRGTV and LCENWSSLFITMKPYDFSFP are within error of each other in amyloid nucleation score: -0.305 ± 0.79 for the first, -0.43 ± 1.1 for the second.

Compared with RFLTCGNFMR, LIVKCSYLSWQAGIWAGFGY is higher in amyloid nucleation score: 0.214 ± 0.74 for the first, 2.9 ± 0.089 for the second.

CAKGPKSWQNGNE and DYMDAYGYINRGDPGLIVEV are within error of each other in amyloid nucleation score: 0.626 ± 0.8 for the first, -0.013 ± 0.53 for the second.

First: DTWEELFKNRDNPRRKCVGL
Second: STMKC
The amyloid nucleation score of the first is higher: 1.32 ± 0.41 for the first, -0.29 ± 0.56 for the second.

Going from WQVYQFSCRAEGEDL to FCALWVQFRYRE, the amyloid nucleation score rises from 2.48 ± 0.12 to 3.89 ± 0.1.

Compared with DYVNGGCLKFKNWRWKFSLS, TLIAYCLL is higher in amyloid nucleation score: -0.349 ± 0.48 for the first, 7.492 ± 0.046 for the second.

First: INGQDKHRHWSFTLFYKKRY
Second: GFSRRGELHVSVYHIRDTFG
The amyloid nucleation score of the first is lower: -0.145 ± 1.1 for the first, 4.88 ± 0.081 for the second.

FLVLFASVPKEVPLAYRVVK and LISVSTRKCVIIG are within error of each other in amyloid nucleation score: -0.898 ± 0.61 for the first, -0.326 ± 0.45 for the second.

First: NLGCWLVGWLNCGFRWDDDR
Second: RCLPSIFDPMRVTRVLPELY
The amyloid nucleation score of the first is higher: 5.639 ± 0.038 for the first, -0.017 ± 1 for the second.

Compared with IKLQMSLATAQIETGTHGLH, WRFWLPAKWISRGSFIVYWI is lower in amyloid nucleation score: 3.51 ± 0.16 for the first, -0.717 ± 0.32 for the second.

Going from IQASSLMVAKERFWGDLWWL to HFLVHFVFDLIRCVLAFVYC, the amyloid nucleation score falls from 4.34 ± 0.1 to 0.61 ± 0.12.

HVRHGESLFFANQA and GIWWQHNGFEYDFGNLSC are within error of each other in amyloid nucleation score: -0.038 ± 1.1 for the first, -0.165 ± 0.35 for the second.

TSGPLFAPPC and IRWSVGSGKIRGSFLLLMDL are within error of each other in amyloid nucleation score: 0.402 ± 0.66 for the first, -0.432 ± 1.1 for the second.

FFESCRLVNFELLVLSFFIG and QHLLLCAAM are within error of each other in amyloid nucleation score: -0.527 ± 0.28 for the first, 0.399 ± 0.74 for the second.

SGTRYYPSWIFGFLVVCKG and LFVKTLGFLAVCASQ are within error of each other in amyloid nucleation score: -0.404 ± 0.64 for the first, 0.609 ± 0.64 for the second.

YSLTYLAFSFQKNNTIFLTY and DLGPLFDCCSVYGGAECCIE are within error of each other in amyloid nucleation score: 0.358 ± 0.65 for the first, -0.1 ± 0.49 for the second.

SSGVRPNNLVSFEFHCLELG and GIMSNLGQSPRVRSHSRRQQ are within error of each other in amyloid nucleation score: -0.28 ± 0.54 for the first, 0.747 ± 0.51 for the second.

FVINSCENVARTHRVCQLAM and WVKENI are within error of each other in amyloid nucleation score: -0.115 ± 0.37 for the first, -0.234 ± 0.65 for the second.

NLAFSSSIRPLITLEGELLP and MLSTSDPVGFGRFCQNDWLN are within error of each other in amyloid nucleation score: -0.176 ± 1.1 for the first, 0.256 ± 0.55 for the second.

Compared with ISGRLNRDGGSDKMSAEREG, FLVHCNILALNTCHLVYL is higher in amyloid nucleation score: 1.25 ± 0.33 for the first, 5.07 ± 0.089 for the second.

Compared with GVVISCWRLWWDTDMMHR, TYKFLSVFIDEFGQDFIMIW is lower in amyloid nucleation score: 0.007 ± 0.24 for the first, -1.11 ± 0.43 for the second.

RRSTWSISLS and NNKLSRV are within error of each other in amyloid nucleation score: -0.916 ± 0.45 for the first, -0.661 ± 1.1 for the second.

CWGNGGQKRLFVLFSFAY and ASVPCVIMGRASRPRVPRMS are within error of each other in amyloid nucleation score: 0.063 ± 1.1 for the first, 1.42 ± 0.29 for the second.

LSRNTYWYGVEIGLVLSSCT and ISRYEGRRLKCDGITFGYSG are within error of each other in amyloid nucleation score: 0.161 ± 0.24 for the first, -0.031 ± 0.23 for the second.

Compared with ISAWAWHQVTWRIPGALVVG, CFSSIQIRDKTVVGDSWMFR is higher in amyloid nucleation score: 0.294 ± 1.1 for the first, 3.58 ± 0.14 for the second.

Compared with RFLEALTVRHCSPL, VDTRS is lower in amyloid nucleation score: 4.71 ± 0.06 for the first, 0.382 ± 0.8 for the second.

Going from WDPLSSCKGACDM to SLMIHGHLFRIRVRSLRGRI, the amyloid nucleation score falls from 0.717 ± 0.43 to -0.714 ± 0.76.

MAILVGSFDVDSNCVDSWGV and RWPNLSDAQVWAPTSQLLSS are within error of each other in amyloid nucleation score: 0.027 ± 0.74 for the first, 0.92 ± 0.32 for the second.

SFAIIS and NTTQAV are within error of each other in amyloid nucleation score: 0.077 ± 0.65 for the first, -0.249 ± 1 for the second.

Compared with DRTKNFLCMMKRGFLSKIPW, EDFYAYFLIRRCVACAIIFL is higher in amyloid nucleation score: 0.227 ± 0.56 for the first, 3.02 ± 0.15 for the second.

In the case of LYDGSVRQWTDEHWWVMSGG, the amyloid nucleation score is reported as 0.988 ± 0.28.

With HEVLTVHNKAFRKYLSCIFR the amyloid nucleation score was “inactive”.
In the case of KYFMVVLVNIIFLYPGL, the amyloid nucleation score is reported as “inactive”.
With RYNIVLGRLL the amyloid nucleation score was “inactive”.
For VGTPEHKLFYGLCVALGQFQ, the amyloid nucleation score was “inactive”.
For DNLNRAKFDLELVESGFWVV, the amyloid nucleation score was “inactive”.
For FNIRSFICV, the amyloid nucleation score was “inactive”.
With GCRGHFMYRTW the amyloid nucleation score was “inactive”.
For FQIRT, the amyloid nucleation score was “inactive”.
